Measured values published in the supplement of paper PMC7125110.
± gives the standard error. This sample holds only a part of the variants without activity.

B1: glmS ribozyme (parent)
chain: AUAAAAGCGCCAGAACUACAGAAAUGUAGUUGACGAGGAGGAGGUUUAUCGAAUUUUCGGCGGAUGCCUCCAAA

Columns and labels:
Conditions in all cases: with glucosamine-6-phosphate
glucosamine-6-phosphate [1] = variants of: B1; experiment: self-cleavage kobs at 640 uM GlcN6P; higher = faster cleavage; RNA array
Method in brief: (§1)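 Barcoded glmS ribozyme variants on sequenced MiSeq chips were transcribed in situ by E. coli RNA polymerase and tracked through a hybridised Cy3 probe at 37 °C. Glucosamine-6-phosphate (40 μM to 10 mM) in HEPES/KCl/Mg(OAc)2 buffer was flowed in, and tiles were imaged over ~14 h. Signals were normalised to baseline and to non-cleaving reference variants; per-tile medians were fit to one- or two-exponential decays to give kobs. kcat and KM came from weighted Michaelis–Menten fits across concentrations.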

glucosamine-6-phosphate [2] = variants of: B1; experiment: self-cleavage kobs at 2500 uM GlcN6P; higher = faster cleavage; RNA array
Method in brief: as §1

glucosamine-6-phosphate [3] = variants of: B1; experiment: self-cleavage kobs at 10000 uM GlcN6P; higher = faster cleavage; RNA array
Method in brief: as §1

Row | Variant | self-cleavage kobs at 640 uM GlcN6P (glucosamine-6-phosphate [1]) [s⁻¹] | self-cleavage kobs at 2500 uM GlcN6P (glucosamine-6-phosphate [2]) [s⁻¹] | self-cleavage kobs at 10000 uM GlcN6P (glucosamine-6-phosphate [3]) [s⁻¹]
1 | A14U G38A A53G G63U | < 1e-05 |  | 
2 | G13U G60U C70U | < 1e-05 |  | 
3 | G13U A15G A52C | < 1e-05 | < 1e-05 | 
4 | C16A G63U U69A | 0.000106 ± 3.1e-05 |  | 
5 | G21U U45C C68U | 0.000572 ± 0.0001 | 0.000312 ± 8e-05 | 0.00114 ± 0.00043
6 | A14G A15C U31C G40C U54A | 4.07e-05 ± 1e-05 | 0.000142 ± 3.5e-05 | 5.3e-05 ± 1.6e-05
7 | G13U C58A U69A | 6.33e-05 ± 2e-05 |  | 
8 | C16G U56A C71G | 7.67e-05 ± 1.7e-05 |  | 
9 | C16G G43U G66A | < 1e-05 |  | 
10 | C16U U47A G62U | < 1e-05 |  | 
11 | G13C U56A U65A | < 1e-05 | < 1e-05 | 
12 | A14U C34U G35A C71U | < 1e-05 |  | 
13 | A14G U45G C58U G62A | < 1e-05 | < 1e-05 | 
14 | C16U C67G C70U | 5.74e-05 ± 2e-05 | 7.27e-05 ± 2e-05 | 
15 | A14U G44U U69C C71A | < 1e-05 |  | < 1e-05
16 | G13U G38U | < 1e-05 |  | 
17 | A14G C61G G66U C67G | 0.000103 ± 2.7e-05 |  | 
18 | A12C G38A A52U | < 1e-05 |  | 
19 | G13A G51U | < 1e-05 | < 1e-05 | < 1e-05
20 | A12C G29A C58G U65G C68G | 0.000168 ± 6e-05 | 8.36e-05 ± 2.2e-05 | 
21 | A12G G21A G43U G59C C70U | < 1e-05 | < 1e-05 | 
22 | A15U C16U A39C | 5.94e-05 ± 1.6e-05 |  | 
23 | A15U U30A C68A | 0.000134 ± 5.1e-05 | 0.000121 ± 4.8e-05 | 

Row | Variant | self-cleavage kobs at 640 uM GlcN6P (glucosamine-6-phosphate [1]) [s⁻¹] | self-cleavage kobs at 2500 uM GlcN6P (glucosamine-6-phosphate [2]) [s⁻¹] | self-cleavage kobs at 10000 uM GlcN6P (glucosamine-6-phosphate [3]) [s⁻¹]
24 | A15G U45C C71U | 0.000376 ± 0.00017 | 0.000625 ± 0.0003 | 
25 | A12U A48C G51U C71U | < 1e-05 |  | 
26 | A15U G29A C68U | 5.07e-05 ± 1.3e-05 | 7.12e-05 ± 2.1e-05 | 
27 | A14U U30C U49A C50A C70G | 8.96e-05 ± 2.3e-05 |  | 
28 | A14C U56A C71U | 0.000174 ± 4.2e-05 | 0.000691 ± 0.00019 | 
29 | A14G G41U C71U | 0.000155 ± 4.4e-05 | 0.00102 ± 0.00029 | 
30 | A14C U47C | 0.000137 ± 2.2e-05 |  | 0.00052 ± 0.00018
31 | A15G G38A G66U | < 1e-05 |  | 
32 | C16U A39C U65G | 0.000131 ± 3.8e-05 | 8.33e-05 ± 2.6e-05 | 0.000837 ± 0.00011
33 | C16G A33C G38U A52U | < 1e-05 |  | 
34 | C16G U54A U65G | 0.000305 ± 0.00011 | 0.000707 ± 0.00023 | 
35 | C16G G29A A39C | 0.000119 ± 2.9e-05 | 0.00027 ± 6.6e-05 | 
36 | A14C C16U A36G | < 1e-05 |  | 
37 | A15G U30A A39U | 0.00404 ± 0.0016 | 0.00871 ± 0.0024 | 0.0247 ± 0.0076
38 | A15C C58A C67G C71G | 4.54e-05 ± 1.8e-05 |  | 
39 | C16A U30G G35A U69C | < 1e-05 | < 1e-05 | 
40 | A15U G35C C50U | < 1e-05 |  | 
41 | A12G A14U A15U C71A | 6.44e-05 ± 1.9e-05 | 7.44e-05 ± 1.8e-05 | 
42 | A14G G44U U46A | 0.000181 ± 4.5e-05 | 0.000253 ± 8.6e-05 | 
43 | A12U G32C U47G C70A | 0.0007 ± 0.00018 |  | 
44 | A12G A52G G62U | < 1e-05 | < 1e-05 | 
45 | A12U A15U C34G U47A | < 1e-05 |  | 
46 | A15G G29A G63C | < 1e-05 |  | 

Row | Variant | self-cleavage kobs at 640 uM GlcN6P (glucosamine-6-phosphate [1]) [s⁻¹] | self-cleavage kobs at 2500 uM GlcN6P (glucosamine-6-phosphate [2]) [s⁻¹] | self-cleavage kobs at 10000 uM GlcN6P (glucosamine-6-phosphate [3]) [s⁻¹]
47 | A15C U46A G60U | < 1e-05 |  | 
48 | A12G A14U C16G U46A A53U | < 1e-05 |  | 
49 | A12U A15G C67A | 0.00125 ± 0.00035 | 0.00634 ± 0.0023 | 
50 | A12C A64C G66C | < 1e-05 |  | < 1e-05
51 | G13C G38U U56G G63U U69C | < 1e-05 | < 1e-05 | 
52 | A12G G40U G41C | < 1e-05 |  | 
53 | C16U G32U A36C C58U | < 1e-05 |  | 
54 | A14U A33U C50G G66U | 0.0013 ± 0.00063 | 6.05e-05 ± 2.7e-05 | 
55 | A14U A36U U56G C67G | 0.000671 ± 0.0003 |  | 
56 | A12C C16A A33U | < 1e-05 |  | 
57 | C16U A39G A53C C68A | < 1e-05 |  | 
58 | G13A A52C G63U | < 1e-05 |  | 
59 | A15U C34U G41U C71U | < 1e-05 |  | 
60 | A12U C16A A53C | 0.000148 ± 3.3e-05 | 0.000358 ± 7.9e-05 | 
61 | A15C U49G G62U A64C C70U | < 1e-05 |  | 
62 | A14U A42C G51U | < 1e-05 |  | 
63 | A14C U30C G38U A39U A53U U55G | < 1e-05 | < 1e-05 | 
64 | A14C G38U G44A G63U C67U | < 1e-05 |  | 
65 | C16U G35U A64C | < 1e-05 | < 1e-05 | 
66 | A15C G29U U30A | 0.000117 ± 2.7e-05 | 0.000332 ± 0.00011 | 
67 | A14G G35C A48U | < 1e-05 |  | 
68 | A14U A48G G63C | < 1e-05 |  | 
69 | C16A G38U C67G | 0.0005 ± 0.00011 |  | 
